According to patent publication US8361442B2, “Oxime conjugates and methods for their formation and use” (The General Hospital Corporation, priority 2002, dated 2013):

Experiments:
[1] = parameters: species or system CD1 mice; settings: mouse, in vivo, iv
Procedure: For animal studies, protein conjugates were labeled with [^111In] after modification of the trypsin portion of conjugates with DTPA. EDC mediated coupling was carried out in aqueous solution at DTPA/EDC/Trypsin lysine residue ratio 500:50:1 at pH 7.5. The resultant DTPA-labeled conjugates were purified by gel chromatography on Sephadex G-25. DTPA to protein molar ratio, as determined by Cu(II) colorimetric assay at 775 nm was approximately 1:4. Unmodified proteins were labeled analogously.
Labeling was performed by transchelation from [^111In] citrate. The labeling solution was prepared by mixing carrier-free [^111In] indium chloride in 0.05 M HCl with a 20-fold volume excess of 0.5 M sodium citrate, pH=5.6. The resultant [^111In] indium citrate solution was added to unbuffered solutions of DTP-modified polymers at 0.2 to 1 mCi of [^111In] per 1 mg of dry substance. The labeled conjugates were separated by gel chromatography on Sephadex G-25, with simultaneous media replacement to sterile isotonic saline. […]
Mice were euthanized at 0.25, 0.5, 1, 2, 4, and 8 hours (n=2). Blood samples and harvested organs (hart, lungs, liver, spleen, kidneys, adrenal glands, stomach, GI, testes, muscle, bone, brain and tail) were analyzed on gamma counter. The amount of radioactivity per organ was expressed as a percentage of the injected dose per gram tissue.

[2] = parameters: species or system mice and rats; settings: in vivo
Excerpt: Biokinetics and biodistributions were studied by blood and tissue sampling in rats, mice and rabbits using ^111In labeled preparations at clinically relevant doses. Fast initial stages (if present) were studied by dynamic gamma-scintigraphy in anesthetized animals.
Biokinetics of unmodified polyals of various molecular weights were studied in normal mice, rats and rabbits. Biokinetics of model nanocarriers (PHF graft copolymers) and polyal-modified liposomes were studied in rats. Biokinetics of formylpeptide conjugates were studied in normal rabbits and rabbits with focal bacterial inflammation. Protein conjugates were studied in mice and rats.

B1: Trypsin: Bovine pancreatic trypsin (EC 3.4.21.4) Type III; DTPA-modified, 111In-labeled for animal studies (protein, UniProt P00760 24-246, looked up)
Serine protease 1: IVGGYTCGANTVPYQVSLNSGYHFCGGSLINSQWVVSAAHCYKSGIQVRLGEDNINVVEGNEQFISASKSIVHPSYNSNTLNNDIMLIKLKSAASLNSRVASISLPTSCASAGTQCLISGWGNTKSSGTSYPDVLKCLKAPILSDSSCKSAYPGQITSNMFCAGYLEGGKDSCQGDSGGPVVCSGKLQGIVSWGSGCAQKNKPGVYTKVCNYVSWIKQTIASN
modifications: DTPA-modified, 111In-labeled
notes: Bovine pancreatic trypsin (EC 3.4.21.4) Type III; DTPA-modified, 111In-labeled for animal studies
clearance of activity from blood within 15 minutes after administration [1]: 80% | half-life of secondary monoexponential clearance [1]: 4 ± 0.8 h | blood half-life of unmodified protein [2]: 7 min
